The source of these data is the supplement of paper PMC9170038.

This data set concerns MS2 coat protein. Kind of data set: apparent KD of MS2 coat protein; higher = weaker reporter binding. The following applies: Eterna round: R107. The procedure:
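RNA-MaP round R107: designed RNA switches with theophylline, tryptophan, arginine or FMN aptamers are transcribed on-chip within common flanks. They are titrated with SNAP-549-labelled MS2 coat protein in RNA-MaP buffer (100 mM Tris pH 7.5, 80 mM KCl, 4 mM MgCl2), without ligand or with the indicated ligand. Median apparent KD per design.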

Setting [1] is: input ligand: theophylline 20 uM.
Where [2] appears, read: input ligand: theophylline 2 mM.
Where [3] appears, read: input ligand: tryptophan 2.4 mM.

As to “ACCUACACGGAGACGUGUAGGAGUAAUGAUACCAGCAUGGAGACAUGCCCUUGGCAGCGUUACAUGAGGAUCACCCAUGUAGUGC [ETHA #5]”, the “apparent KD of MS2 coat protein” value came out at 10.4 nM (input ligand: arginine 13.2 mM); 10.7 nM (input ligand: none); 14.2 nM under setting [1]; 12.8 nM under setting [2]; 12.9 nM under setting [3].

Consider “ACCUGCGUUUGAUUCUAUCUGACGCAGGUUCGAGGACCGGUACGGCCGCCACUCGGACAUGAGGAUCACCCAUGUUUGACAUGGG [#03 Exclusion Tryptophan A]”, for which the “apparent KD of MS2 coat protein” value turned out to be 27.8 nM (input ligand: arginine 13.2 mM); 121 nM (input ligand: none); 608 nM under setting [1]; 186 nM under setting [2]; 92.7 nM under setting [3].

As for “ACCUGUACGAAAAGUGCAGGACACGAAUAACGAGGACCGGUACGGCCGCCACUCGGAAAAUAACCUGAGGAUCACCCUGGUCGUG [TrypAS 7 #AlternativeMS2 #Zipper #StaticStem]”, the “apparent KD of MS2 coat protein” value came out at 29.5 nM (input ligand: arginine 13.2 mM); 31.6 nM (input ligand: none); 37.5 nM under setting [1]; 40.1 nM under setting [2]; 33.9 nM under setting [3].

On to “ACGAACGAUAGUGAUACCAGACGUACAUGAGGAUCACCCAUGUUGUAAACAUGGUUAAUAGUCCCUUGGCAGCACGAUAAGUUCG [JR_ExcTheophyB_Sub003]”, for which the “apparent KD of MS2 coat protein” value (input ligand: arginine 13.2 mM) amounted to 104 nM, the “apparent KD of MS2 coat protein” value under setting [1] is 530 nM and the “apparent KD of MS2 coat protein” value under setting [3] was 802 nM.

For the sequence “ACGAACUGUAGUGAUACCAGACGUACAUGAGGAUCACCCAUGUUGUAAACAUGGUGAAUAGUCCCUUGGCAGCACAGUUAGUUCG [#11 Exclusion-TheophyllineB]”, the “apparent KD of MS2 coat protein” value (input ligand: arginine 13.2 mM) came out at 162 nM, the “apparent KD of MS2 coat protein” value under setting [1] was 355 nM and the “apparent KD of MS2 coat protein” value under setting [3] came out at 299 nM.

As to “ACGAACUGUAGUGAUACCAGACGUACAUGAGGAUCACCCAUGUUGUAAACAUGGUUAAUAGUCCCUUGGCAGCACAGUUAGUUCG [JR_ExcTheophyB_Sub002]”, the “apparent KD of MS2 coat protein” value (input ligand: arginine 13.2 mM) came out at 105 nM, the “apparent KD of MS2 coat protein” value under setting [1] stood at 612 nM and the “apparent KD of MS2 coat protein” value under setting [3] was 695 nM.

Consider “ACGACGCAUAGUGAUACCAGCACAACAUGAGGAUCACCCAUGUCACUUAUGUAGUAAUAAUGCCCUUGGCAGCACUAUGCGUCAG [SSTheo B #1]”, for which the “apparent KD of MS2 coat protein” value worked out at 40.7 nM (input ligand: arginine 13.2 mM), 66.3 nM under setting [1] and 52.6 nM under setting [3].

As for “ACGACGCAUAGUGAUACCAGUAGAACAUGAGGAUCACCCAUGUCUGUGACGCACAAACUCUGCCCUUGGCAGCACUAUGCGUCAG [SSTheo B #7]”, the “apparent KD of MS2 coat protein” value runs as follows: (input ligand: arginine 13.2 mM) 12 nM; under setting [1], 15.9 nM; under setting [3], 12.2 nM.

Consider “ACGACGCAUAGUGAUACCAGUAGAACAUGAGGAUCACCCAUGUCUGUGACGCACAAAUUCUGCCCUUGGCAGCACUAUGCGUCAG [SSTheo B #6]”, for which the “apparent KD of MS2 coat protein” value is, setting by setting: (input ligand: arginine 13.2 mM) 12.6 nM; under setting [1], 18.1 nM; under setting [3], 12.1 nM.

Consider “ACGAUACGACAUGAGGAUCACCCAUGUGAUACCAGCCUGGAAACAGGCCCUUGGCAGCACAAAUACUCCAGAAACGUAUCGAAAA [MAT - Exclusion Theophlline A - Mod of Eli - D6]”, for which the “apparent KD of MS2 coat protein” value came out at 64.9 nM (input ligand: arginine 13.2 mM), 262 nM under setting [1] and 156 nM under setting [3].

Consider “ACGAUAGCACACGAGGAUCACCCGUGUGAUACCAGCCUGGAAACAGGCCCUUGGCAGCACACAAUAAAAGUGUAACUAUCGAAUA [TheoAX4 #MicroSwitchBubble #AlternativeMS2]”, for which the “apparent KD of MS2 coat protein” value was 40.2 nM (input ligand: arginine 13.2 mM); 54.2 nM (input ligand: none); 128 nM under setting [1]; 161 nM under setting [2]; 56.1 nM under setting [3].

Regarding “ACGCCCAGGUAGGCUUAGUGGGAUAUGGAAGGAGCGCCGAUGCAGGCAGGUAGGUCGCCAUAGAACAUGAGGAUCACCCAUGUAA [#05 Same State - Arginine A]”, the “apparent KD of MS2 coat protein” value stood at 31.3 nM (input ligand: arginine 13.2 mM); 32.8 nM (input ligand: none); 37.9 nM under setting [1]; 33.1 nM under setting [2]; 27.1 nM under setting [3].

On to “ACGCCCGCCUCACAUGAGGAUCACCCAUGUCGAGGACCGGUACGGCCGCCACUCGUCGUCGGUAAUACGGGCGUUGAAUAAUAUA [Atedon]”, for which the “apparent KD of MS2 coat protein” value was found to be 11.8 nM (input ligand: arginine 13.2 mM), 14.9 nM under setting [1] and 14.4 nM under setting [2].

For the sequence “ACGGAUCGGAAACGAUCCGCGGCGAGGGUGCGAGGACCGGUACGGCCGCCACUCGGCUAACAUGAGGAUCACCCAUGUCCGAAGA [ETA NuPACK+Vienna+Vienna2 #9]”, the “apparent KD of MS2 coat protein” value (input ligand: arginine 13.2 mM) turned out to be 43.6 nM; the “apparent KD of MS2 coat protein” value (input ligand: none) came to 126 nM; the “apparent KD of MS2 coat protein” value under setting [1] stood at 137 nM; the “apparent KD of MS2 coat protein” value under setting [2] was 117 nM; the “apparent KD of MS2 coat protein” value under setting [3] came to 172 nM.

Consider “ACGGAUCGGAAACGAUCCGCGGCUAGGGUGCGAGGACCGGUACGGCCGCCACUCGGGUAACAUGAGGAUCACCCAUGUCUGAUUU [ETA NP+V+V2 #14]”, for which the “apparent KD of MS2 coat protein” value worked out at 50.6 nM (input ligand: arginine 13.2 mM); 123 nM (input ligand: none); 116 nM under setting [1]; 118 nM under setting [2]; 587 nM under setting [3].
